According to article PMC1523230, “Structural Organization of the 19S Proteasome Lid: Insights from MS of Intact Complexes” (PLoS Biology, 2006):

B1: Rpn5 (natural protein, S. cerevisiae, UniProt Q12250 1-445, looked up)
chain: MSRDAPIKADKDYSQILKEEFPKIDSLAQNDCNSALDQLLVLEKKTRQASDLASSKEVLAKIVDLLASRNKWDDLNEQLTLLSKKHGQLKLSIQYMIQKVMEYLKSSKSLDLNTRISVIETIRVVTENKIFVEVERARVTKDLVEIKKEEGKIDEAADILCELQVETYGSMEMSEKIQFILEQMELSILKGDYSQATVLSRKILKKTFKNPKYESLKLEYYNLLVKISLHKREYLEVAQYLQEIYQTDAIKSDEAKWKPVLSHIVYFLVLSPYGNLQNDLIHKIQNDNNLKKLESQESLVKLFTTNELMRWPIVQKTYEPVLNEDDLAFGGEANKHHWEDLQKRVIEHNLRVISEYYSRITLLRLNELLDLTESQTETYISDLVNQGIIYAKVNRPAKIVNFEKPKNSSQLLNEWSHNVDELLEHIETIGHLITKEEIMHGLQAK
notes: Rpn5, subunit of the 19S proteasome lid, S. cerevisiae; source: endogenous, S. cerevisiae strain RJD2909; in lysate, then co-purified with Rpn11^H12 as the 19S lid (Ni-NTA, Sephacryl S-400 gel filtration)
B2: Rpn11^H12 (natural protein, S. cerevisiae, UniProt P43588 1-306, looked up)
chain: MERLQRLMMNSKVGSADTGRDDTKETVYISSIALLKMLKHGRAGVPMEVMGLMLGEFVDDYTVNVVDVFAMPQSGTGVSVEAVDDVFQAKMMDMLKQTGRDQMVVGWYHSHPGFGCWLSSVDVNTQKSFEQLNSRAVAVVVDPIQSVKGKVVIDAFRLIDTGALINNLEPRQTTSNTGLLNKANIQALIHGLNRHYYSLNIDYHKTAKETKMLMNLHKEQWQSGLKMYDYEEKEESNLAATKSMVKIAEQYSKRIEEEKELTEEELKTRYVGRQDPKKHLSETADETLENNIVSVLTAGVNSVAIK
notes: Rpn11, subunit of the 19S proteasome lid, S. cerevisiae; tagging cassette of plasmid pT2H12 integrated directly before the stop codon of RPN11; also called modified Rpn11; source: S. cerevisiae strain RJD2909 (tag integrated at the chromosomal RPN11 locus); in lysate, then purified as the 19S lid (Ni-NTA, Sephacryl S-400 gel filtration); not shown: His12, C-terminal, kept
B3: Rpn8 (natural protein, S. cerevisiae, UniProt Q08723 1-338, looked up)
chain: MSLQHEKVTIAPLVLLSALDHYERTQTKENKRCVGVILGDANSSTIRVTNSFALPFEEDEKNSDVWFLDHNYIENMNEMCKKINAKEKLIGWYHSGPKLRASDLKINELFKKYTQNNPLLLIVDVKQQGVGLPTDAYVAIEQVKDDGTSTEKTFLHLPCTIEAEEAEEIGVEHLLRDVRDQAAGGLSIRLTNQLKSLKGLQSKLKDVVEYLDKVINKELPINHTILGKLQDVFNLLPNLGTPDDDEIDVENHDRINISNNLQKALTVKTNDELMVIYISNLVRSIIAFDDLIENKIQNKKIQEQRVKDKQSKVSDDSESESGDKEATAPLIQRKNKKN
notes: Rpn8, subunit of the 19S proteasome lid, S. cerevisiae; source: endogenous, S. cerevisiae strain RJD2909; in lysate, then co-purified with Rpn11^H12 as the 19S lid (Ni-NTA, Sephacryl S-400 gel filtration)

Legend:
Rpn3 [1] = target: T1, Rpn3 (S. cerevisiae, UniProt P40016 17-523); assay: cross-linking; purified lid 4.8 uM, BS3 at a ratio of 1:50, 2 h on ice, 200 mM NaCl, 50 mM HEPES pH 7.5; bands A-F of a Bis-Tris 4-12% denaturing gel digested with trypsin and identified by MALDI-TOF/TOF MS and MS/MS; details: both partners purified
T1 construct: Rpn3, subunit of the 19S proteasome lid, S. cerevisiae; from the measured mass the first 16 residues are truncated; source: endogenous, S. cerevisiae strain RJD2909; in lysate, then co-purified with Rpn11^H12 as the 19S lid (Ni-NTA, Sephacryl S-400 gel filtration)
T1 sequence (looked up): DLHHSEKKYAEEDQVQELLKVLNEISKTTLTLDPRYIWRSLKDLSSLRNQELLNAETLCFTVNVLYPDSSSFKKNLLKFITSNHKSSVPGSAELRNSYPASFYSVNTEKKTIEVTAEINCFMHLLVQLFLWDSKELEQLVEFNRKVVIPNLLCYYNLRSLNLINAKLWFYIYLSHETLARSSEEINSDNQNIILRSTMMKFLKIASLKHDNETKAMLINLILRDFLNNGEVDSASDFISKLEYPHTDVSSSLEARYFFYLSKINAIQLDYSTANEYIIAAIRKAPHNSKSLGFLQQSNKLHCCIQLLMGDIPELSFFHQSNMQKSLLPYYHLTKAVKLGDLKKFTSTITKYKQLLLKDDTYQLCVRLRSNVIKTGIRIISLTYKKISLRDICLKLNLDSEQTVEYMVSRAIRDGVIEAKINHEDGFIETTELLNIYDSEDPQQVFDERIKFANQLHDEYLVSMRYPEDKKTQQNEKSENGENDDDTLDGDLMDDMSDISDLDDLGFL

Rpn5 [2] = target: B1; assay: native MS; intact endogenous 19S lid purified through Rpn11^H12, buffer exchanged into 1 M ammonium acetate, nano-electrospray on a high-mass Q-TOF; MS/MS of the 47+ charge state at 100 and 120 V; details: both partners purified
Rpn3 [3] = target: T1, Rpn3; assay: as above; details: both partners purified
Rpn7 [4] = target: T2, Rpn7 (S. cerevisiae, UniProt Q06103 1-429); assay: affinity purification with mass spectrometry; Rpn11^H12 held on Ni-NTA from yeast lysate, gel filtration; subunits identified by MALDI-TOF/TOF peptide mapping and database search; details: partners not purified
T2 construct: Rpn7, subunit of the 19S proteasome lid, S. cerevisiae; source: endogenous, S. cerevisiae strain RJD2909; in lysate, then co-purified with Rpn11^H12 as the 19S lid (Ni-NTA, Sephacryl S-400 gel filtration)
T2 sequence (looked up): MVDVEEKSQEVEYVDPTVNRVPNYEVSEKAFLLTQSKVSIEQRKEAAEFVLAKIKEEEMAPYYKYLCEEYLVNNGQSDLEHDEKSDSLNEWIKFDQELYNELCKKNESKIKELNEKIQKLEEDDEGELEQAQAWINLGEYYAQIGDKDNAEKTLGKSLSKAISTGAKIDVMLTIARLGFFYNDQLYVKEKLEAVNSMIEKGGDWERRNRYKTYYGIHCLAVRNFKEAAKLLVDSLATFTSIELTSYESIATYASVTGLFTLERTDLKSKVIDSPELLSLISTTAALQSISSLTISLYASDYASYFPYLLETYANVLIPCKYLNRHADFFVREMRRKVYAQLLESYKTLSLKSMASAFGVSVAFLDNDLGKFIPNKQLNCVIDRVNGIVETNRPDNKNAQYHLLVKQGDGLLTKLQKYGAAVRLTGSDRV

Rpn8 = target: B3; assay: as above; details: partners not purified
Rpn5 [5] = target: B1; assay: cross-linking; purified lid 4.8 uM, BS3 at a ratio of 1:50, 2 h on ice, 200 mM NaCl, 50 mM HEPES pH 7.5; bands A-F of a Bis-Tris 4-12% denaturing gel digested with trypsin and identified by MALDI-TOF/TOF MS and MS/MS; details: both partners purified
Rpn6 = target: T3, Rpn6 (S. cerevisiae, UniProt Q12377 1-434); assay: native MS; 185-kDa subcomplex present in the solution of the purified lid, 1 M ammonium acetate; 34+ charge state isolated, MS/MS with argon at 130 V; details: both partners purified
T3 construct: Rpn6, subunit of the 19S proteasome lid, S. cerevisiae; Present in substoichiometric amounts: a part of the purified lid complexes lacks Rpn6; also called Rnp6; source: endogenous, S. cerevisiae strain RJD2909; in lysate, then co-purified with Rpn11^H12 as the 19S lid (Ni-NTA, Sephacryl S-400 gel filtration)
T3 sequence (looked up): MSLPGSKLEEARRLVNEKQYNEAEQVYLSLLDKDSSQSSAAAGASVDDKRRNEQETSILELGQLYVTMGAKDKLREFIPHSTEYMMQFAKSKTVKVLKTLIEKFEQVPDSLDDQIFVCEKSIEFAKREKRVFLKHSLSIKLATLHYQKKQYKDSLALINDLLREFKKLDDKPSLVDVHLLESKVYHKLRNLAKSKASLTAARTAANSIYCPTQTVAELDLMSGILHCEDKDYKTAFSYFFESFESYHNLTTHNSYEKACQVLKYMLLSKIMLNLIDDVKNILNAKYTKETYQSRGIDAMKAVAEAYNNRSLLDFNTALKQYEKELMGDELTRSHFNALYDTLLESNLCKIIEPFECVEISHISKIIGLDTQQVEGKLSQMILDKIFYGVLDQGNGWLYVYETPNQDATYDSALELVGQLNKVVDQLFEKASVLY

Rpn9 = target: T4, Rpn9 (S. cerevisiae, UniProt Q04062 1-393); assay: as above; details: both partners purified
T4 construct: Rpn9, subunit of the 19S proteasome lid, S. cerevisiae; source: endogenous, S. cerevisiae strain RJD2909; in lysate, then co-purified with Rpn11^H12 as the 19S lid (Ni-NTA, Sephacryl S-400 gel filtration)
T4 sequence (looked up): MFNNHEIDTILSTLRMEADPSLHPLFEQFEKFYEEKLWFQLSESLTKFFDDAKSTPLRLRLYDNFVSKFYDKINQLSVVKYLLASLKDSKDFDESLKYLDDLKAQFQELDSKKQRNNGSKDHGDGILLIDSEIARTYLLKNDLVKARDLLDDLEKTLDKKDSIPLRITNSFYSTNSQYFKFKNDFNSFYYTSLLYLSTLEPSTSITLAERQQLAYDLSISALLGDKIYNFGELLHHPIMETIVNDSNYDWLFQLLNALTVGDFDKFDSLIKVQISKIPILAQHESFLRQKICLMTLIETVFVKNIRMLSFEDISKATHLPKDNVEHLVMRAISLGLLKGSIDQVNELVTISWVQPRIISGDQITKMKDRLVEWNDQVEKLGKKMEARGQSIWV

Rpn7 [6] = target: T2, Rpn7; assay: cross-linking; purified lid 4.8 uM, BS3 at a ratio of 1:50, 2 h on ice, 200 mM NaCl, 50 mM HEPES pH 7.5; bands A-F of a Bis-Tris 4-12% denaturing gel digested with trypsin and identified by MALDI-TOF/TOF MS and MS/MS; details: both partners purified
Rpn11^H12 = target: B2; assay: affinity purification with mass spectrometry; Rpn11^H12 held on Ni-NTA from yeast lysate, gel filtration; subunits identified by MALDI-TOF/TOF peptide mapping and database search; details: partners not purified

## B1
Rpn3 [1]
  binding result: binds

## B2
Rpn5 [2]
  binding result: binds
Rpn3 [3]
  binding result: binds
Rpn7 [4]
  binding result: binds
Rpn8
  binding result: binds

## B3
Rpn5 [5]
  binding result: binds
Rpn6
  binding result: binds
Rpn9
  binding result: binds

B4: Sem1 (natural protein, S. cerevisiae, UniProt O94742 2-89, looked up)
chain: STDVAAAQAQSKIDLTKKKNEEINKKSLEEDDEFEDFPIDTWANGETIKSNAVTQTNIWEENWDDVEVDDDFTNELKAELDRYKRENQ
modifications: N-terminal amino group acetylated (initiator methionine removed)
notes: Sem1, subunit of the 19S proteasome lid, S. cerevisiae (10 kDa); the initiator methionine is removed; source: endogenous, S. cerevisiae strain RJD2909; in lysate, then co-purified with Rpn11^H12 as the 19S lid (Ni-NTA, Sephacryl S-400 gel filtration)
Rpn7 [6]
  binding result: binds
Rpn3 [1]
  binding result: binds
Rpn11^H12
  binding result: binds
